{"source": "paper PMC12482441", "about": "(Autophagy Reports, 2025)", "molecules": {"B1": {"name": "His-MBP-tagged S. pombe Atg17 (natural protein, UniProt O42651 1-411, looked up)", "chain": "MELLQQWTQQAKAALTQARQLCGDAHKFNEDAKTDLRNSIKQHQQLKELAKLTASQCTRLDSSTALIKQLLDLVQNYPTFNQLNVLHDRLESSLKRLRDCTLDPALGSEYTNLYAFVDDTALEDLKTRLRGVTDGVWNAFEKLAGLLEEDLCANYHKRLEAVSLDFLPPAYNDTAEELADLLLQVAQHYDQCSEALNIYDTLSDAEKKDLQEVLQSDSNHVPSVLTELRSGLDQTIHYFNAVQSYKSKVDSATSILEALAEELNKNQLTNQRHEAAHELMRAQTGLEIPQLAQELVQLERHYTHFAKAYTALLQEIHRRQTYENCVRSIVDEFVGRLEKEQQAEAKCRIDFFNQYGDYLPQTLWGAVTDPPLHFEIIEHQYTELPNVKVIPDKNDKKSKQREKSSTTASKR"}, "B2": {"name": "His-MBP-tagged S. cerevisiae Atg17 (natural protein, UniProt Q06410 1-417, looked up)", "chain": "MNEADVTKFVNNARKTLTDAQLLCSSANLRIVDIKKKLSSWQLSISKLNFLIVGLRQQGKFLYTILKEGIGTKLIQKQWNQAVLVVLVDEMKYWQYEITSKVQRLDGIVNELSISEKDDTDPSKLGDYISRDNVNLLNDKLKEVPVIERQIENIKLQYENMVRKVNKELIDTKLTDVTQKFQSKFGIDNLMETNVAEQFSRELTDLEKDLAEIMNSLTQHFDKTLLLQDKKIDNDEREELFKVVQGDDKELYNIFKTLHEVIDDVDKTILNLGQFLQAKIKEKTELHSEVSEIINDFNRNLEYLLIFKDISNLIDSFKNSCTQDIQTTKELCEFYDNFEESYGNLVLEAKRRKDVANRMKTILKDCEKQLQNLDAQDQEERQNFIAENGTYLPETIWPGKIDDFSSLYTLNYNVKNP"}}, "key": {"[1]": {"target": "His-MBP-tagged N. fulvescens Atg17 (N. fulvescens)", "assay": "negative stain EM"}, "[2]": {"target": "the molecule itself", "assay": "negative stain EM"}}}
{"molecule": "His-MBP-tagged N. fulvescens Atg17 (natural protein)", "values": [{"measurement": "stoichiometry N", "setting": "[1]", "result": 2}]}
{"molecule": "B1", "values": [{"measurement": "stoichiometry N", "setting": "[2]", "result": 2}]}
{"molecule": "B2", "values": [{"measurement": "stoichiometry N", "setting": "[2]", "result": 2}]}
